Biological target: Rat MBL-A (mannan-binding lectin A) (rat) (UniProt P19999)
Assay: SPR, MBL immobilised, MASP-1 at 100 nM, equivalent concentrations of NaCl up to 550 mM

MASP-1ent, modified form of rat MASP-1 in which the zymogen cleavage site has been replaced by an enterokinase recognition site (DDDDK) (from UniProt Q8CHN8 25-704) (enzyme)
percent of maximal binding in the presence of NaCl (ionic strength control): > 60%

From patent US20120225437A1
